Assay results reported in article PMC4428629, “The Structure of an NDR/LATS Kinase–Mob Complex Reveals a Novel Kinase–Coactivator System and Substrate Docking Mechanism” (PLoS Biology, 2015).
Non-standard residues stand in square brackets, D forms with d. No end group written: not given here. carboxyfluorescein = carboxyfluorescein label; pT = C[C@@H](OP(=O)(O)O)[C@H](N)C(=O)O

T1: Cbk1^251–756–Mob2 complex (S. cerevisiae, UniProt P53894 251-756; P43563 1-287)
T1 chain 1: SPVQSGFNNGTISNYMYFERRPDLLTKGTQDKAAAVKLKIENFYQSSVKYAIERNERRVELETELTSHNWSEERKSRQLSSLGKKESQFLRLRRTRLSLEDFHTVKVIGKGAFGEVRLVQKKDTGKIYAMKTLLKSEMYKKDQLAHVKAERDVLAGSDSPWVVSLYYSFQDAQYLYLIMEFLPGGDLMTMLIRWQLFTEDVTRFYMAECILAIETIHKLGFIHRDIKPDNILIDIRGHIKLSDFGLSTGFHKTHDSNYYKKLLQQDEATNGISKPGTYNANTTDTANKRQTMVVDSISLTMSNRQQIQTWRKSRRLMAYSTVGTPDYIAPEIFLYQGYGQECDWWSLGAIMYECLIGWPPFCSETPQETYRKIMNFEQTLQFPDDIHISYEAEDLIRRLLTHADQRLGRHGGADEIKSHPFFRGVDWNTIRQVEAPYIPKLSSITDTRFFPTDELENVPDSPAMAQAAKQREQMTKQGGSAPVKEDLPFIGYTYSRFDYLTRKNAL
T1 chain 2: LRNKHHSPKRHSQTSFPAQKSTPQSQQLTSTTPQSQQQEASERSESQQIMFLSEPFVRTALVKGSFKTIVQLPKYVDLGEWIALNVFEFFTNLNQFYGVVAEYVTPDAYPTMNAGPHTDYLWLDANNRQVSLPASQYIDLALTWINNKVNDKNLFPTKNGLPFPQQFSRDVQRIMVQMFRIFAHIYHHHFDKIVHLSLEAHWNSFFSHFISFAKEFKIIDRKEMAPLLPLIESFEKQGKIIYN

T2: Cbk1^352–756 kinase domain (S. cerevisiae, UniProt P53894 352-756)
T2 construct: source: bacterially expressed, purified (Ni-NTA, glutathione Sepharose); not shown: His6, C-terminal, kept
T2 sequence (looked up): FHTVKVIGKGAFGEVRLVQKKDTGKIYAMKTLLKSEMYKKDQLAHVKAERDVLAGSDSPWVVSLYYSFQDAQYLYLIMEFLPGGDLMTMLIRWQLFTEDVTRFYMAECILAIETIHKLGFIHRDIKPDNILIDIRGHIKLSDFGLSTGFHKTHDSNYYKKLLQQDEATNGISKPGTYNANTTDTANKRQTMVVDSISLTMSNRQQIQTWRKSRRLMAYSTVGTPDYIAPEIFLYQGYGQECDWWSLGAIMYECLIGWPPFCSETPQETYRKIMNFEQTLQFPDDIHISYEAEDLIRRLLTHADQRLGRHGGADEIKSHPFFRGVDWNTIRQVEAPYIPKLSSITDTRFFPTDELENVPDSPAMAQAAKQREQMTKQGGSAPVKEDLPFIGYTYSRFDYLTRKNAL


Experiments:
[1] = tested on: Cbk1–Mob2; assay: In vitro pulldown of Cbk1–Mob2; assay type: binding, Saccharomyces cerevisiae; conditions: in vitro binding (Figs 4B, S5A, S5E)
Description: Cbk1 substrates containing the docking motifs or substrate sites were bacterially expressed as MBP or GST fusions. For pulldown assays, MBP-fusion lysates were incubated with amylose resin (New England Biolabs) on ice for 15 min, followed by washing with PBS (137 mM NaCl, 2.7 mM KCl, 4.3 mM Na2HPO4, 1.4 mM KH2PO4 [pH 7.3]). GST fusions were purified on glutathione Sepharose beads followed by dialysis into Cbk1 buffer.
MBP fusions were incubated on bead with 1 μM purified Cbk1 on ice for 15 min. Samples were washed 3× with PBS (transferred to fresh tube on last wash), resuspended in SDS-PAGE buffer, and separated by SDS-PAGE. Samples were directly visualized with GelCode Blue (Pierce) or transferred to PVDF membrane for immunoblotting. Cbk1 was detected using His or pS570 primary antibodies. For experiments detected using α-pS570, antibody signal with pure protein was analyzed to control for lot-dependent variations in expression as well as variations between Cbk1 mutants (no variations detected).

[2] = target: pepAce2, carboxyfluorescein-labelled (S. cerevisiae); assay: fluorescence polarisation; direct titration: protein titrated into 20 nM carboxyfluorescein-labelled peptide; 20 mM Tris (pH 8.0), 100 mM NaCl, 0.05% Brij35P, 2 mM DTT; quadratic binding equation
[3] = target: Cbk1(F699A)–Mob2 complex (S. cerevisiae, UniProt P53894 251-756; P43563 1-287, F699A); assay: FP
[4] = target: T1, Cbk1^251–756–Mob2 complex; assay: FP
[5] = target: Cbk1(W444A)–Mob2 complex (S. cerevisiae, UniProt P53894 251-756; P43563 1-287, W444A); assay: FP
[6] = target: T2, Cbk1^352–756 kinase domain; assay: pull-down; pull-down of Cbk1^352–756 by bead-bound Ace2 or Ssd1 docking motifs in competition with unbound Ace2^270–290; conditions: both partners purified
[7] = target: Cbk1(Y687A)–Mob2 complex (S. cerevisiae, UniProt P53894 251-756; P43563 1-287, Y687A); assay: FP
[8] = target: Cbk1(F447A)–Mob2 complex (S. cerevisiae, UniProt P53894 251-756; P43563 1-287, F447A); assay: FP
Chain of Cbk1(F447A)–Mob2 complex (P53894 251-756 F447A, chain 1 of 2, one chain of several): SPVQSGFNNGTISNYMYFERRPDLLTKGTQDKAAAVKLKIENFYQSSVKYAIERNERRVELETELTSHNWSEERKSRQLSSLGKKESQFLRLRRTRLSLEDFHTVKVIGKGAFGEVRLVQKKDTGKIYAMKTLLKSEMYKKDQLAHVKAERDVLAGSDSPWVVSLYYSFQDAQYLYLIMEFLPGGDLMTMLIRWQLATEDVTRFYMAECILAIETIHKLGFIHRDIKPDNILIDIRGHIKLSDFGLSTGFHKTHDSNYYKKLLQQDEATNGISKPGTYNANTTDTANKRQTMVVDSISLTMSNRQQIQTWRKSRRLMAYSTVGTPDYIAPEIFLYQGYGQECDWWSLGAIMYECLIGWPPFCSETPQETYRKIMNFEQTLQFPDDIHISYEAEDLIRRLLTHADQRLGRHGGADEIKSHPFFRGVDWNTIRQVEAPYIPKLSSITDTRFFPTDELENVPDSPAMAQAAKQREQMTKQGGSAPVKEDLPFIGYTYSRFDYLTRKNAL

Chain of Cbk1(W444A)–Mob2 complex (P53894 251-756 W444A, chain 1 of 2, one chain of several): as the sequence (P53894 251-756 F447A, chain 1 of 2, one chain of several) above, with W194A, A197F counted along it
Chain of Cbk1(Y687A)–Mob2 complex (P53894 251-756 Y687A, chain 1 of 2, one chain of several): as the sequence (P53894 251-756 F447A, chain 1 of 2, one chain of several) above, with A197F, Y437A counted along it

Row | Molecule | Kd [3] | Kd [4] | Kd [5] | Kd [7] | also measured
1 | 15-amino-acid peptide from Ace2: 15-amino-acid peptide from Ace2 with the sequence YQFP at its C-terminal end (IIVTTNSANGGYQFP; also: MBP fusion, end not given here) | – | – | – | – | association with Cbk1–Mob2 [1]: associates with the Cbk1–Mob2 complex
2 | Cbk1^251–756–Mob2 complex (from UniProt P53894 251-756; P43563 1-287) | – | – | – | – | Kd [2]: 6 µM
3 | carboxyfluorescein-GSGSIIVTTNSANGGYQFP [pepAce2, carboxyfluorescein-labelled] | 5 µM | 5 µM | 19 µM | – | –
4 | NAIIVTTNSANGGYQFPPPTL (domain or fragment, S. cerevisiae, UniProt P21192 270-290, looked up) [unbound Ace2^270–290] | – | – | – | – | binding result [6]: binds
5 | carboxyfluorescein-TTEQSDFKFP [pepSSD1, carboxyfluorescein-labelled] | 4.9 µM | 6 µM | 58 µM | 36 µM | –
6 | IGY[pT]YSRFDY-carboxyfluorescein [pepHM-P, carboxyfluorescein-labelled] | 28 µM | 20 µM | 24 µM | 22 µM | Kd [8]: 33 µM
